Experiment: soluble on expression in E. coli; label from the status in PepcDB or PDB records

Soluble on expression in E. coli, not soluble:
MGSDKIHHHHHHMDEVLSFKRGRVPLLISMPHPGTRLTPAVDAGLVEEARALTDTDWHIPRLYDFAEELGASTLAAHYSRYVVDLNRPSDDKPLYSTATTGLYPDTLFDGRPLYREGMAPSAEERMRYLAEVWTPYHRTIAEELARLKAEFGYALLWDAHSIRSHVPHLFDGRLPDFNLGTNAGASCDPALAARLEAVCAAAEGYSHVLNGRFKGGHITRHYGQPEQHVHAVQLELAQCTYMDEQAPFAYRADLAEATRAVIRELLESLLAWGRERYA
MGSDKIHHHHHHMDFELDDGWDVYPIYGNTNKAFMGKKNHQRLFLKRNASPFLAALSMEEITPRLIWTKRISSGDTLTAQEWLNGQTLTKQQMRLPEVAHLLARVHNSELLHRMLRKVGGQSVRPQDFIQQYLQDLPDDLRHHPLMARVLDELRGTAPTLPATDYRVCHGDLNHKNWLLSDRQQLYLVDWDSARFADPASDISMLLCEYVPLSDWQQWLSEYGETMTTALRTRVVWYAKINLLLNIKDNYYRNQYHQMNHEIIFLEELSQYEV
MGSDKIHHHHHHMDFKQVQQSFIDYIRDPSRPLPADTDVRRMQVYRELFFNNVLGFVSNGFPVLKSLYSEEEWLALVQSFFSQHDCQSPIFIDIAGEFLDFLQQQYQPTANDPVFMLELAHYEWLELAVAVAQASGDESQLSPAQIPMQALCLSKTARVAQYHFEVQHIRQDYRPQQQLDTPVFFCLYQDADCEVCFLQLNPLSAQVLAFLQAQGQASFKEIVDWLTITYPQMAPEIIAQGCTQLLEQLAAKGIVRGRQS
MGSDKIHHHHHHMDFYQVIKTRTSTKKFKNTPIAAPKLDNMLNAAMMSPSWKNKTSYSFVIVDDERKKDAIANFIINSDEDAKNSVKDAPMVVAIVGDTTESGHINGKEYYLVDSAIAMEHFVLAAANEGYGTCWIASFDEKRMKDELRIPDKYSVVAITPVGEVGESKAHYEPKDIENHIYRNYWSMPYSEKKHLVMK
MGSDKIHHHHHHMDHAIYTAMGGASQSLEKQAITANNLANASTPGFRAQLSALRAVPVNGLTLPTRTLVVASTPGADMTEGVMNYTGRAMDVALPKESWLAVQTANGGEAYTRNGNMEINADGQLTIQGRVVMGDGGPIDIPPQAQISISADGTISALNAGDPPNTIAQLGRLKLVKATGQEVERSDDGLFRLTQQAQQQRGNVLQNDPTVRIMPGVIEGSNVNTVDTMVDMIANARRFEMQMKVISSVDDNAQRANQILAMG
MGSDKIHHHHHHMDKQLWEKAVAFHGHECPGLAIGFRACEAVQEKMGLKFSQDEEVVCVTENDACGADAVQVITGCSFGKGNLIYRGTGKMAFSFFSRNTGESMRIVLKPSSSEMDRQERQNYILTAPMDDVFEFKKPGFTLPKQARLFKTVICEVCGEGAPEHKMRLQEGKKVCLDCFEDYSRGY
MGSDKIHHHHHHMDLQNKTLLITGIDEFIGLRAAELAITQGMKVRGLQTSTNKDKAQKLGAEVIVGSITDAAIAHKACQGVDIVLHTEQLTEEAGPIKNFREINVNGAVNMAKAAKNAGVKCFVHLSSVMVYGFNYSDRITESGTLSGDNNPYCQTKIEAETELLPLNSPPDFGLIIIRAGDIYGPGSIPWIVRPILMMRQKLFAYANEGQGVINHVYIDNLIDAIFLAVEKDAYGEIFNITDGEETSWKEYFMRLAAMEGASAPMSIPKDEMKLFLKLRNQGQKLFRKKADILPESVDFMTRPYAYSITKAQTILDYKPKVDLEQGLSQTKIWLQNTDIQKLVK
MGSDKIHHHHHHMDLYFVKFRVTSKLTSEIVQGYFLGKLNQIPEYDFFVIPGRYARKYSVDLNLGFEDFLEDFKAKKESALKEVLEASAITDEFFDFWLIQSRKQNLRLVGSEFFRLVESGDHEALRVFIADLFREWSEKLEVEVVGVPLDYEDVSLEVVKEHFEELSTDEVFKLFQREDLRNLPEVFPVLDPLNGVTIREIDVEERIDFVILNYGNEEFSEKFKRFLKEKFGTENVASLPGKVLSKEIVKTREGTLYLLKVEFEEGIIGKAIVSPNLKIKRGESRVKISDEEWMEKIGEMLKEGEESKQEKLKLRNSPQPVQKTTSSD
MGSDKIHHHHHHMDNSEEKKLEALGAFEISRKMLALAQKNEKSNIFLNAGRGNPNWIQTLARLAFVRLVQFGVTESKLTINNGIMAGYINTDGIRERLFAFLDPDKNDEDKFLIDAVNYCHTELGLNRDKVVAEWVNGAVANNYPVPDRCLVNTEKIINYFLQELSYKDANLAEQTDLFPTEGGTAAIVYAFHSLAENHLLKKGDKIAINEPIFTPYLRIPELKDYELVEVDLHSYEKNDWEIEPNEIEKLKDPSIKALIVVNPTNPTSKEFDTNALNAIKQAVEKNPKLMIISDEVYGAFVPNFKSIYSVVPYNTMLVYSYSKLFGCTGWRLGVIALNEKNVFDDNIAHLDKVELRQLHKRYSSVVLDPDKMKFIDRLCADSRSIGLYHTAGLSTPQQIMEALFSMTHLLTSTNGGSDDPYIDIARKLVSERYDQLHDAMQAPKDETDTNTHYYSLIDIYRLAEKIYGKEFRDYLTNNFEQVDFLLKLAEKNGVVLVDGVGFGAKPGELRVSQANLPTEDYALIGKQVLELLKEYYEEFKQNN
MGSDKIHHHHHHMDQSFQVNLNRLRYFHAILEHGSIRAAAERLNTAPSVVSRQLQLLESEIGAPLFERRQHGMIATEAATLLVEYTHACRIGLEQFHESLHGELRGRVEIALTVGYVEDLMDSVITGFLHRHPHVAVELNVRTADGVVDDVLRKRAHIGLTYNPSLPPEIRECLSVEHPTFLAVAPDHPLAKRGEPLELRDAVRYPLALMPAPYYGVGQIVHTVAHAENIPLAPRLVTNSVPAMRRFVRSGNGVAFLTRLLVEDDLERGEIVALRMRNPLFNSPCGKVLVHNERALPRAANEILARIVRDLPSFKS
MGSDKIHHHHHHMDQSLFQNGNFQPLASRMRPQTLDEFVGQTHLLGKDKVLSNLIEHDEISSMIFWGPPGVGKTTLARIIARRTKAQFVTFSAVTSGIKEIKQVMKEAEQNRELGQKTIVFVDEIHRFNKAQQDAFLPYVERGSIILIGATTENPSFEVNAALLSRTRVFVLHGLTSAELVDLLQRALKDPRGYGLQKVKIGKKLLAQIADFANGDARIALNTLEMAVTNAETKGGVITVTQADVAQLLTKKALLYDKNGEEHYNLISALHKSMRNSDVDAAIYWLARMLEAGEDPLYVARRLVRFASEDIGMADSRALEITIAVYQACQFIGMPECTVHLTHAVTYLALAPKSNALYTAYEGAKKDATETLAEPVPLQIRNGVTDLMQDLGYGKDYQYAHNTKDKLTTMQTMPDNLIGKTYYHPTTQGSEAKVKERLEQIKAWHAQHPDPDSPKTKKKS
MGSDKIHHHHHHMDRIIYTAGSGASQAMQQQSVVNHNLSNVSTPGFRAELDAMRAVPVQGDGRLATRTSVAATTSGTDFSPGYMNATGRRLDVAMQGDAFLAIQDPQGGEAYTRRGDLQVDADGMLTVKGEPVMGEQGPIVVPPDAEFSIGADGSISVLEAGANPDEIAPVGRLKLVTPDLQALTRGDDGWFRLPPGDDAEIAAPQPLDEDARLQSGVLEGSNVSATDAMVAMIDGARRYDMQMKVIESADQNAQRANSLLSVQA
MGSDKIHHHHHHMDSSAAFSNPTKLRADLLRGRLDVSVDSSTIAPDSLFGFAERRNPKRAFLFVSRVLGRHIPARPSVMLKSFQDLAHKIPVDLPGPVLVIGMAETAVGLGAGVHRAYSETHSDALYLVSTRHPTGTELFARFEEEHSHASAHLIHLPADPALRDMMLGARSLVLVDDEASTGKTFINLHQALVEAGLSKIERVVTCVLTDWSAGAVSTSMGAVAEQVSLLQGSYSFDEDVSAPLPDMPEVGTVAMGDWPLLTANDWGRMGVLAVADTLAPGLTVNKGERVLVVGTSEFVWRPFLLAERLEKAGADVHFSSTSRSPIALGHAIDHALSFSDNYGLGIPNFLYNVRPGQFDRVLICTETPRQAVPAELIEALNAEVICDE
MGSDKIHHHHHHMDSSMPSTPHASAYPIGKPGQVWGEEEKSLWLNKQVIQRSYAEQVLALILDPASISANTADPMETTATQSNAHPEITSALELVHYNTLAYNTLHQGASDYPVYLFKSRHWDETKPNVLITGGVHGYETSGVQGAIRFLRTKAQHYCQHANLIIVPCLSPWGYETINRWNPHAIDPNRSFVHDTAPHDTAMTQAKAQASKVQLSDVQEAHALMAALGELAVNFSLHIDLHETTDSDNAEFRPALAARDGTSYDNWDIPDGFYLVGDTLKPQAEFQKAVINAVNAITHIAPAGEHARLIGVPIAQFGVINYPTKALGLCAGMTDATYCTTTEVYPDSPLVDDENCILAQVAAITGALDYVIKNR
MGSDKIHHHHHHMDSSRSDPMRLMIFGAGYSGKAIGQHFIQQGIPVSGTTRSPAKAKALSDLGIEPLVFDGQRLSDEIIQAMACATHVVQSIAPGSDGDPLLRLTQGALKTWMPKVQWLAYLSTVGVYGDHQGAWVDEDTVCKPVSVRSKERVEAEQAWGRAALAAGVPLSTLRLSGIYGPGRNGLVNMAEGTARRLVKKDQVFNRIRVEDIAAATWFLAGRNEQGIFNITDHEPAPPQDVVAEAARLMEVEPPPEQAFETAELSPMARSFYGENKRVMNAKVRALGFAFAYPDYRVSLSQLWSSGRWRG
MGSDKIHHHHHHMDTAGMISAVQEILANRSLDGWEITAASSHILSIEVKEQKVDTFKCSAPLGVSVRVLKNGGMGFSFSTSMAPEDLARMVDNALVGAESQTPDADHGFPDPPAVYPDVPGLFDDGLAAVAEEAKIAVALDLERLTLAADPRVRKVRKATYGDSMVETMVVNSRGVSCRYRGTSVSASVTAVAEENGQSQMGWDFDFSSRFDGISVERIVAGAVAKATGLLGAATVPTMRCPAVLDTYVATEILEVLAPAFLAESVQKGKSLLAGKRGEMIVAPLLTIRDDGTLPGGMGTAPFDAEGVPKRNTVLVQNGRLDSYLYDTLRARKEGVAPTGNAIRSGIKSPPHMGVSNLFIENGTEAPEALLAGITRGVLLTEVMGMHTANTISGDFSVGAAGFLVEDGRVTRPVKGIAIAGNILELFRGVEAVGNDLRFYGTVGSPSLRIAALDVSGE
MGSDKIHHHHHHMDTIGRRLDMGKRIVLADPRGFCAGVDRAILTVRTILKSADTPRADGLPPVYVRRQIVHNKHVVEDLAAQGAVFVQELAEIPDAAAEAGIPIVFSAHGVSPAVKAEATARGMHVVDATCPLVSKVHREVLRFVKEGYEIIYIGHKGHDEAVGVVEESPEHVHLIEHASDVDSLDFQPDTKLVLLTQTTLSVDETAGTITALKARFPWLEMPPNSDICYATSNRQAAVKLVAEQADCVVIVGSANSSNSVRLMEVAQEGLSARYASKTAVGAAGRAHRVDDASELDPAWFEGVESVGISSGASVPDELVSGVVAALQELGYQDVSTIETIKENMHFVLPAELRK
MGSDKIHHHHHHMDTLNQIDISIIIPIYNVEKYLTVCIDSLKNQGGLRMEIILVNDGSTDLSGEIADEYAKKEERIKVIHQENGGASAARNVGLDIATEEYIAFLDSDDWIKDESLSLLYDEAVKHHADVVMGNMWLCHQDGSMDKPFKCISNGSIKELLSGKESFIELVKTCFYLPMPFKYIYNRKYLHKIQARFEEGIMHEDELWCPIVLCQAERMVITNIEFYYYRQNEESVMHTTSLARRLKSLFQVTEGLIKFSDQFVSSKTSVDLRSWWYVNILRLYSKAFTLLPNIKDSSYIVHKHYLDRFWRDCGQMIPESIQRCRNYYYKAEAGLKEYTDWRVSDWVAGVDCQIKAGKKVMLVFNTINGEDLQLKIEDVPVDWVITTDRKYFQQATIVVFHLPTLHYELENDQDKLEGQTWVSWHLESEKDDPGINDPEISELFDLLISDPQDSEGEQHPLLRLCRNYVNNG
